Data as given in US20100247515A1.

Assays:
[1] = molecular target: DOM1h-131-202; assay: monomer/dimer self-association, AUC sedimentation velocity
[2] = molecular target: DOM1h-131-202; assay: monomer/dimer self-association, AUC sedimentation equilibrium
[3] = molecular target: DOM1h-131-206; assay: as above

B1: DOM1h-131-202 (protein)
VH: EVQLLESGGGLVQPGGSLRLSCAASGFTFAHETMVWVRQAPGKGLEWVSHIPPDGQDPFYADSVKGRFTISRDNSKNTLYLQMNSLRAEDTAVYYCALLPKRGPWFDYWGQGTLVTVSS
[1]
  Kd: 1000 nM
[2]
  Kd: 1300 nM

B2: DOM1h-131-206 (protein)
VH: EVQLLESGGGLVQPGGSLRLSCAASGFTFAHETMVWVRQAPGKGLEWVSHIPPDGQDPFYADSVKGRFTISRDNSKNTLYLQMNSLRAEDTAVYHCALLPKRGPWFDYWGQGTLVTVSS
[3]
  Kd: 360000 nM
